Data taken from US20260049151A1 (SHENGHE CHINA BIOPHARMACEUTICAL, published 2026).
Where two headings read alike, the source gives them in different places. Blank lines part the entries; values can stand above or below the binder they belong to.

Tests used:
Human-TNFR2-His [1] = target: T1, Human-TNFR2-His (human, UniProt P20333 23-257); assay: ELISA: Human-TNFR2-His coated (0.1 ug/mL), antibody titrated, goat anti-human IgG Fc detection (Example 2)
T1 construct: Bought protein; also called human TNFR2 protein; TNFR2 protein; not shown: His tag
T1 sequence (looked up): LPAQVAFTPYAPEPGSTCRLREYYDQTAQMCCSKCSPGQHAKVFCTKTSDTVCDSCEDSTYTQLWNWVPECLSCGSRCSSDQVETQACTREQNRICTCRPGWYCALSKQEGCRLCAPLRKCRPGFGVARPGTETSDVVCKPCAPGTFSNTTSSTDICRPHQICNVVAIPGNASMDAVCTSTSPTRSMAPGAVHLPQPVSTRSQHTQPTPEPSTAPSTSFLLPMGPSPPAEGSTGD

Human 4-1BB His = target: T2, Human 4-1BB His (human, UniProt Q07011 24-186); assay: ELISA: Human 4-1BB His coated (0.2 ug/mL), antibody titrated, goat anti-human IgG Fc detection (Example 3)
T2 construct: Bought protein; lots 198-2146F1-W6 and 2407c-214FF1-YC; also called human 4-1BB protein; 4-1BB protein; not shown: His tag
Procedure: Human 4-1BB His (manufacturer: Acro, CAT: 41B-H5258, LOT: 198-2146F1-W6) was diluted to 0.2 μg/mL with a coating solution (1×PBS, pH7.4), and coated in 96-well ELISA plate at 100 μL/well overnight at 4° C. The coating solution was poured off. Each well was washed with 1×PBST at 300 μL, washed 4 times with a plate washer, and patted dry on a flat paper. It was blocked with 3% skim milk powder at 300 μL/well, and incubated at 37° C. for 1 h. The blocking solution was poured off, washed 4 times with a plate washer, and patted dry on a flat paper. Negative control and positive control were set up. […] The variable region of the antibody sequence of the positive control consists of SEQ ID NO: 15 and SEQ ID NO: 19, with the addition of the constant region of human IgG1 (SEQ ID NO: 46 and SEQ ID NO: 47). The positive control and antibody were diluted to 10 μg/mL with 3% skim milk powder as the starting concentration, and then diluted by 3-fold gradient (11 gradients in total), and a blank well was set up and only the diluent was added. It was incubated at 37° C. for 1 h at 100 μL/well. The liquid in the well was discarded, washed 4 times with a plate washer, and patted dry on a flat paper. Goat anti-human IgG Fc was diluted with 3% skim milk powder at 1:20000, and incubated at 37° C. for 1 h at 100 μL/well. It was washed 6 times with a plate washer, and patted dry on a flat paper. TMB color developing solution was added at 100 μL/well, and wrapped with aluminum foil. Color development was performed at 37° C. in the dark for 8 min. Termination solution 1M HCl was added to terminate the color development reaction at 100 μL/well. Readings were taken at 450 nm on an ELISA reader.

Human TNFR2 mFc = target: T3, Human TNFR2 mFc (human, UniProt P20333 23-257); assay: bridging ELISA: Human TNFR2 mFc coated (0.3 ug/mL), antibody titrated, then Human 4-1BB His (0.3 ug/mL), HRP anti-His detection (Example 5)
T3 construct: Bought protein; not shown: mFc
T3 sequence (looked up): T1 sequence (looked up)

Human-TNFR2-His [2] = target: T1, Human-TNFR2-His; assay: ELISA: Human-TNFR2-His coated (0.1 ug/mL), antibody titrated, goat anti-human IgG Fc detection (Example 2); remark: listed apart in the source
Procedure: Human-TNFR2-His (manufacturer: SINO, CAT: 10417-H08H, LOT: LC15NO0412) was diluted to 0.1 μg/mL with a coating solution (1×PBS, pH7.4), and coated in 96-well ELISA plate at 100 µL/well overnight at 4° C. The coating solution was poured off. Each well was washed with 1×PBST at 300 μL, washed 4 times with a plate washer, and patted dry on a flat paper. It was blocked with 3% skim milk powder at 300 μL/well, and incubated at 37° C. for 1 h. The blocking solution was poured off, washed 4 times with a plate washer, and patted dry on a flat paper. Negative control and positive control were set up. […] The positive control and antibody were diluted to 10 μg/mL with 3% skim milk powder as the starting concentration, and then diluted by 3-fold gradient (11 gradients in total), and a blank well was set up and only the diluent was added. It was incubated at 37° C. for 1 h at 100 μL/well. The liquid in the well was discarded, washed 4 times with a plate washer, and patted dry on a flat paper. Goat anti-human IgG Fc was diluted with 3% skim milk powder at 1:10000, and incubated at 37° C. for 1 h at 100 μL/well. It was washed 6 times with a plate washer, and patted dry on a flat paper. TMB color developing solution was added at 100 μL/well, and wrapped with aluminum foil. Color development was performed at 37° C. in the dark for 8 min. Termination solution 1M HCl was added to terminate the color development reaction at 100 μL/well. Readings were taken at 450 nm on an ELISA reader.

T2 sequence (Q07011 24-186 limits assumed): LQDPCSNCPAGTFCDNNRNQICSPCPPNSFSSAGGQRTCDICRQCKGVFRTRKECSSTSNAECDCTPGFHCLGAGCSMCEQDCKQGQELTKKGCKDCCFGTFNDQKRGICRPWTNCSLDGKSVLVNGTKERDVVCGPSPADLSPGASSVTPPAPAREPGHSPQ

EC50 (read off the curve) (Human-TNFR2-His [1]): ~0.2 nM
EC50 (read off the curve) (Human 4-1BB His): ~0.09 nM
EC50 (read off the curve) (Human TNFR2 mFc): ~0.07 nM
B1: Antibody J1 (bispecific antibody, human IgG1, kappa)
light: DIQMTQSPSSLSASLGDRVTISCSASQGISNYLNWYQQKPDGTVKLLIYYTSTLHSGVPSRFSGSGSGTDYTLTISSLQPEDIATYYCQQYSKLPWTFGGGTKLEIKRTVAAPSVFIFPPSDEQLKSGTASVVCLLNNFYPREAKVQWKVDNALQSGNSQESVTEQDSKDSTYSLSSTLTLSKADYEKHKVYACEVTHQGLSSPVTKSFNRGEC
heavy: not shown
notes: IgG1 subtype; full-length 4-1BB antibody with TNFR2 VHH at the C-terminus of the heavy chains

EC50 (read off the curve) (Human-TNFR2-His [2]): ~0.04 nM
EC50 (read off the curve) (Human TNFR2 mFc): ~0.09 nM
B2: Antibody M1 (bispecific antibody, human IgG1, kappa)
light: B1 light
heavy: not shown
notes: IgG1 subtype; full-length 4-1BB antibody with TNFR2 VHH at the N-terminus of the heavy chains

EC50 (read off the curve) (Human-TNFR2-His [1]): ~0.09 nM
EC50 (read off the curve) (Human TNFR2 mFc): ~0.07 nM
B3: Antibody E1 (bispecific antibody, human IgG1, kappa)
light: DIVMTQSPATLSVSPGERATLSCKASQNVGSNVDWYQQKPGQSPRVLIYKASIRYTGIPARFSGSGSGTEFTLTISILQSEDFAVYFCMQSKSYPITFGQGTKLEIKRTVAAPSVFIFPPSDEQLKSGTASVVCLLNNFYPREAKVQWKVDNALQSGNSQESVTEQDSKDSTYSLSSTLTLSKADYEKHKVYACEVTHQGLSSPVTKSFNRGEC
heavy: not shown
notes: IgG1 subtype; full-length TNFR2 antibody with 4-1BB scFv at the C-terminus of the heavy chains

EC50 (read off the curve) (Human 4-1BB His): ~0.06 nM
EC50 (read off the curve) (Human TNFR2 mFc): ~0.07 nM
B4: Antibody H (bispecific antibody, human IgG1, kappa)
light: QVQLQESGPGLVKPSETLSLTCTVSGSSLTSYGVHWVRQPPGKCLEGLGVIWPGGSTNYNSALMSRVTISKDNSKSQVSLKMSSLTAADTAVYYCARVTGTWYFDVWGQGTTVTVSSGGGGSGGGGSGGGGSDIQMTQSPSSLSASLGDRVTISCSASQGISNYLNWYQQKPDGTVKLLIYYTSTLHSGVPSRFSGSGSGTDYTLTISSLQPEDIATYYCQQYSKLPWTFGCGTKLEIKGGGGSGGGGSGGGGSDIVMTQSPATLSVSPGERATLSCKASQNVGSNVDWYQQKPGQSPRVLIYKASIRYTGIPARFSGSGSGTEFTLTISILQSEDFAVYFCMQSKSYPITFGQGTKLEIKRTVAAPSVFIFPPSDEQLKSGTASVVCLLNNFYPREAKVQWKVDNALQSGNSQESVTEQDSKDSTYSLSSTLTLSKADYEKHKVYACEVTHQGLSSPVTKSFNRGEC
heavy: not shown
notes: IgG1 subtype; full-length TNFR2 antibody with 4-1BB scFv at the N-terminus of the light chains
